One molecule from PMC9072312, “Candida albicans evades NK cell elimination via binding of Agglutinin-Like Sequence proteins to the checkpoint receptor TIGIT” (Nature Communications, 2022) can be followed below.

This assay has as its target T1, PVR-Ig (extracellular portion of human PVR fused to the Fc domain of human IgG1) (human, UniProt P15151 21-343).
T1 construct: PVR (poliovirus receptor), human ligand of TIGIT, extracellular portion; source: HEK293T, transfected (pIRESpuro3), secreted, purified (HiTrap Protein G HP)
T1 sequence: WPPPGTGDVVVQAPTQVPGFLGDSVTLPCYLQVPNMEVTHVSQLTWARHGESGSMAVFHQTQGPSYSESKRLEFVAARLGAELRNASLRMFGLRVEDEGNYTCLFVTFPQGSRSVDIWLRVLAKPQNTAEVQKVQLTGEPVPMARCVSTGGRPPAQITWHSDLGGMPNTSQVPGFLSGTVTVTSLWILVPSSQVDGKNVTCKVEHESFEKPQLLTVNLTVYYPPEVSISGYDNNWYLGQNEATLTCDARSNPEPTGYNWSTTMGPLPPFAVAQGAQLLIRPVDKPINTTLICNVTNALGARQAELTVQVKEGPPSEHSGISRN
The assay can be described thus: MST; RED-NHS labeled TIGIT-Ig at constant level, unlabeled Ig-fusion proteins serially diluted in 1x PBS; Monolith NT.115, 20% MST power, 95% LED power, standard capillaries, 25 °C. To be noted: both partners purified.

B1: TIGIT-Ig (extracellular ligand-binding domain of human TIGIT fused to the Fc domain of human IgG1) (Fc fusion)
chain: MMTGTIETTGNISAEKGGSIILQCHLSSTTAQVTQVNWEQQDQLLAICNADLGWHISPSFKDRVAPGPGLGLTLQSLTVNDTGEYFCIYHTYPDGTYTGRIFLEVLESSVAEHGARFQIP
modifications: fluorescently labeled with the Monolith NT Protein Labeling Kit RED-NHS
notes: also called human TIGIT-Ig; T cell immunoreceptor with Ig and ITIM domains; source: HEK293T, transfected (pIRESpuro3), secreted, purified (HiTrap Protein G HP)
As to B1, the binding result is reported as “binds”.
